Patent US20130209454A1 (CALIFORNIA INSTITUTE OF TECHNOLOGY, published 2013)

Experiments:
Assay in all cases: cell-based or functional assay
[1] = biological target: HIV-1 Env of strain P0402_c2_11 (HIV-1)
[2] = biological target: HIV-1 Env of strain Du422.1 (HIV-1)
[3] = biological target: HIV-1 Env of strain THRO4156.18 (HIV-1)
[4] = biological target: HIV-1 Env of strain T251-18 (HIV-1)
[5] = biological target: HIV-1 Env of strain ZM247v1(Rev-) (HIV-1)
[6] = biological target: HIV-1 Env of strain Q842.d12 (HIV-1)
[7] = biological target: HIV-1 Env of strain C2101.c01 (HIV-1)
[8] = biological target: HIV-1 Env of strain 1054_07_TC4_1499 (HIV-1)
[9] = biological target: HIV-1 Env of strain T255-34 (HIV-1)
[10] = biological target: HIV-1 Env of strain ZM233M.PB6 (HIV-1)
[11] = biological target: HIV-1 Env of strain Ce0682_E4 (HIV-1)
[12] = biological target: HIV-1 Env of strain Ce1176_A3 (HIV-1)
[13] = biological target: HIV-1 Env of strain CAAN5342.A2 (HIV-1)
[14] = biological target: HIV-1 Env of strain Ce0393_C3 (HIV-1)
[15] = biological target: HIV-1 Env of strain 6480.v4.c25 (HIV-1)
[16] = biological target: HIV-1 Env of strain 6535.3 (HIV-1)
[17] = biological target: HIV-1 Env of strain 3103.v3.c10 (HIV-1)
[18] = biological target: HIV-1 Env of strain 211-9 (HIV-1)
[19] = biological target: HIV-1 Env of strain 231965.c01 (HIV-1)
[20] = biological target: HIV-1 Env of strain HIV-16845-2.22 (HIV-1)
[21] = biological target: HIV-1 Env of strain CNE53 (HIV-1)
[22] = biological target: HIV-1 Env of strain 0330.v4.c3 (HIV-1)
[23] = biological target: HIV-1 Env of strain T257-31 (HIV-1)
[24] = biological target: HIV-1 Env of strain 3016.v5.c45 (HIV-1)
[25] = biological target: HIV-1 Env of strain ZM214M.PL15 (HIV-1)
[26] = biological target: HIV-1 Env of strain 928-28 (HIV-1)
[27] = biological target: HIV-1 Env of strain ZM135M.PL10a (HIV-1)
[28] = biological target: HIV-1 Env of strain 703357.C02 (HIV-1)
[29] = biological target: HIV-1 Env of strain CNE20 (HIV-1)
[30] = biological target: HIV-1 Env of strain 620345.c01 (HIV-1)
[31] = biological target: HIV-1 Env of strain RHPA4259.7 (HIV-1)
[32] = biological target: HIV-1 Env of strain 3817.v2.c59 (HIV-1)
[33] = biological target: HIV-1 Env of strain 89-F1_2_25 (HIV-1)
[34] = biological target: HIV-1 Env of strain AC10.0.29 (HIV-1)
[35] = biological target: HIV-1 Env of strain T278-50 (HIV-1)
[36] = biological target: HIV-1 Env of strain X1193_c1 (HIV-1)
[37] = biological target: HIV-1 Env of strain ZM197M.PB7 (HIV-1)
[38] = biological target: HIV-1 Env of strain SC422661.8 (HIV-1)
[39] = biological target: HIV-1 Env of strain Ce703010054_2A2 (HIV-1)
[40] = biological target: HIV-1 Env of strain 62357_14_D3_4589 (HIV-1)
[41] = biological target: HIV-1 Env of strain T250-4 (HIV-1)
[42] = biological target: HIV-1 Env of strain 231966.c02 (HIV-1)
[43] = biological target: HIV-1 Env of strain Q461.e2 (HIV-1)

B1: NIH45-46 IgG (antibody, V domains shown)
VH: QVRLSQSGGQMKKPGESMRLSCRASGYEFLNCPINWIRLAPGRRPEWMGWLKPRGGAVNYARKFQGRVTMTRDVYSDTAFLELRSLTSDDTAVYFCTRGKYCTARDYYNWDFEHWGRGAPVTVSS
VL: EIVLTQSPATLSLSPGETAIISCRTSQSGSLAWYQQRPGQAPRLVIYSGSTRAAGIPDRFSGSRWGADYNLSISNLESGDFGVYYCQQYEFFGQGTKVQVDI
neutralization IC50 [1]: 0.073 µg/mL | neutralization IC50 [2]: > 50 µg/mL | neutralization IC50 [3]: 1.91 µg/mL | neutralization IC50 [4]: 1.35 µg/mL | neutralization IC50 [5]: 2.94 µg/mL | neutralization IC50 [6]: 0.031 µg/mL | neutralization IC50 [7]: 4.24 µg/mL | neutralization IC50 [8]: 0.113 µg/mL | neutralization IC50 [9]: 0.71 µg/mL | neutralization IC50 [10]: 2.5 µg/mL | neutralization IC50 [11]: 0.054 µg/mL | neutralization IC50 [12]: 0.93 µg/mL | neutralization IC50 [13]: 0.15 µg/mL | neutralization IC50 [14]: 0.334 µg/mL | neutralization IC50 [15]: 0.032 µg/mL | neutralization IC50 [16]: 0.23 µg/mL | neutralization IC50 [17]: 1.77 µg/mL | neutralization IC50 [18]: > 50 µg/mL | neutralization IC50 [19]: 0.051 µg/mL | neutralization IC50 [20]: 5 µg/mL | neutralization IC50 [21]: 0.008 µg/mL | neutralization IC50 [22]: 0.09 µg/mL | neutralization IC50 [23]: 0.49 µg/mL | neutralization IC50 [24]: > 50 µg/mL | neutralization IC50 [25]: 0.17 µg/mL | neutralization IC50 [26]: 0.23 µg/mL | neutralization IC50 [27]: 0.59 µg/mL | neutralization IC50 [28]: 19.2 µg/mL | neutralization IC50 [29]: 7.83 µg/mL | neutralization IC50 [30]: > 50 µg/mL | neutralization IC50 [31]: 0.017 µg/mL | neutralization IC50 [32]: > 50 µg/mL | neutralization IC50 [33]: > 50 µg/mL | neutralization IC50 [34]: 0.56 µg/mL | neutralization IC50 [35]: > 50 µg/mL | neutralization IC50 [36]: 0.021 µg/mL | neutralization IC50 [37]: 0.15 µg/mL | neutralization IC50 [38]: 0.06 µg/mL | neutralization IC50 [39]: 0.159 µg/mL | neutralization IC50 [40]: 0.06 µg/mL | neutralization IC50 [41]: > 50 µg/mL | neutralization IC50 [42]: 1.64 µg/mL | neutralization IC50 [43]: 0.076 µg/mL
